Data taken from US20250313627A1.

Assays:
[1] = target: human ROR1 (Receptor Tyrosine Kinase-Like Orphan Receptor 1) on the cell surface (human) (UniProt Q01973); assay: flow cytometry, B16-F10 cells expressing human ROR1 (high density)
[2] = target: human ROR1 (Receptor Tyrosine Kinase-Like Orphan Receptor 1) on the cell surface (human) (UniProt Q01973); assay: flow cytometry, LS174T cells expressing human ROR1 (low density)
[3] = target: human ROR1 (Receptor Tyrosine Kinase-Like Orphan Receptor 1) on the cell surface (human) (UniProt Q01973); assay: flow cytometry, B16-F10 cells expressing human ROR1 (high density); remark: listed apart in the source
[4] = target: human ROR1 (Receptor Tyrosine Kinase-Like Orphan Receptor 1) on the cell surface (human) (UniProt Q01973); assay: as above; remark: listed apart in the source
[5] = target: human ROR1 (Receptor Tyrosine Kinase-Like Orphan Receptor 1) on the cell surface (human) (UniProt Q01973); assay: as above; remark: listed apart in the source
[6] = target: human ROR1 (Receptor Tyrosine Kinase-Like Orphan Receptor 1) on the cell surface (human) (UniProt Q01973); assay: flow cytometry, LS174T cells expressing human ROR1 (low density); remark: listed apart in the source
[7] = target: human ROR1 (Receptor Tyrosine Kinase-Like Orphan Receptor 1) on the cell surface (human) (UniProt Q01973); assay: flow cytometry, B16-F10 cells expressing human ROR1 (high density); remark: listed apart in the source
[8] = target: human ROR1 (Receptor Tyrosine Kinase-Like Orphan Receptor 1) on the cell surface (human) (UniProt Q01973); assay: as above; remark: listed apart in the source

Chain of human ROR1 (Receptor Tyrosine Kinase-Like Orphan Receptor 1) on the cell surface (human) (Q01973 30-937): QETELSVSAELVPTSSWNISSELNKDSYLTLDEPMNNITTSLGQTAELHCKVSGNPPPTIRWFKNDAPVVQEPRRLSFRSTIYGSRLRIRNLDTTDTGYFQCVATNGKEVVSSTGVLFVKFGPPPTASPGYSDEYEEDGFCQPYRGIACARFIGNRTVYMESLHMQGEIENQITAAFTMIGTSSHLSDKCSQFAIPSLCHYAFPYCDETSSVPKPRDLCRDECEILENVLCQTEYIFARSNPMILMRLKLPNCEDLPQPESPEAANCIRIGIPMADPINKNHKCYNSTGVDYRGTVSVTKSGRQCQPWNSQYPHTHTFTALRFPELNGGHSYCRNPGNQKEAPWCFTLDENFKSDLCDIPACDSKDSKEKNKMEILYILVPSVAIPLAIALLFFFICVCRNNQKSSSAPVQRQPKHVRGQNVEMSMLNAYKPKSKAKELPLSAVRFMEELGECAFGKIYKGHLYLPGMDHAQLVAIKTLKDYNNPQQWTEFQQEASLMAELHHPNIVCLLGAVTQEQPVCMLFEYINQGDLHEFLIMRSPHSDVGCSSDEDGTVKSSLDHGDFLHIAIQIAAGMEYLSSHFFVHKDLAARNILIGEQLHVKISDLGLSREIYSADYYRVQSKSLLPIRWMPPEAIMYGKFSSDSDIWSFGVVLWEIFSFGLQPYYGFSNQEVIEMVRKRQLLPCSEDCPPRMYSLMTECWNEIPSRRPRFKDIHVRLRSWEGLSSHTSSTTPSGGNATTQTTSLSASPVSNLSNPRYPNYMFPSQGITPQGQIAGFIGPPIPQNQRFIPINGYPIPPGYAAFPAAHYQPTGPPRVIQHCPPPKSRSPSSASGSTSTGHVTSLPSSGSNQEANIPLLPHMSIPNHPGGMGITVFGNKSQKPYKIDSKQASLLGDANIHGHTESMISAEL

B1: anti-human ROR1 (clone 2A2)-PE (antibody, from another filing, V domains shown)
VH: QVQLQQSGAELVRPGASVTLSCKASGYTFSDYEMHWVIQTPVHGLEWIGAIDPETGGTAYNQKFKGKAILTADKSSSTAYMELRSLTSEDSAVYYCTGYYDYDSFTYWGQGTLVTVSA
VL: DIVMTQSQKIMSTTVGDRVSITCKASQNVDAAVAWYQQKPGQSPKLLIYSASNRYTGVPDRFTGSGSGTDFTLTISNMQSEDLADYFCQQYDIYPYTFGGGTKLEIK
- MFI [1]: 27100
- MFI [2]: 36200
- MFI [3]: 21600
- MFI [4]: 416000
- MFI [5]: 38700
- MFI [6]: 7960
- MFI [7]: 19900
- MFI [8]: 35200
